In assay [1] the target is T1, HPV16 E6 oncoprotein (HPV16, UniProt P03126 1-158).
T1 construct: Expressed in yeast from pPC97; In the functional assays it is the endogenous E6 of HPV16-positive cells; also called HPV16 E6 protein; HPV-E6
The assay is described as follows: mutational studies (two-hybrid; assay not further described).

The target of the next assay is T2, HPV6 E6 protein (HPV6, UniProt P06462 1-150).
T2 construct: Expressed in yeast from a pPC97 expression vector; also called E6 of HPV6
T2 sequence: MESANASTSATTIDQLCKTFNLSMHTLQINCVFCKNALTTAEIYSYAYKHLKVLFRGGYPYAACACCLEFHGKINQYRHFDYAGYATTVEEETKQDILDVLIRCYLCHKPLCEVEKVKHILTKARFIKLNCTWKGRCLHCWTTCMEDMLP
Nature of the assay: yeast two-hybrid.

Another assay addresses T3, HPV18 E6 protein (HPV18, UniProt P06463 1-158).
T3 construct: Expressed in yeast from a pPC97 expression vector; also called E6 of HPV18
Nature of the assay: yeast two-hybrid.

Another assay has as its target T4, HPV11 E6 protein (HPV11, UniProt P04019 1-150).
T4 construct: Expressed in yeast from a pPC97 expression vector; also called E6 of HPV11
T4 sequence: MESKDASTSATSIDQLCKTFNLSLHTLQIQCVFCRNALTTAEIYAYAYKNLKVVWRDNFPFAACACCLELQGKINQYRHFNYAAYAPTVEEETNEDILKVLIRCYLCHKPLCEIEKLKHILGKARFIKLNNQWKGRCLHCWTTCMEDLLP
The assay is described as follows: yeast two-hybrid.

For assay [2], the target named is T1, HPV16 E6 oncoprotein. Nature of the assay: yeast two-hybrid screening.

T1 sequence (P03126 whole entry): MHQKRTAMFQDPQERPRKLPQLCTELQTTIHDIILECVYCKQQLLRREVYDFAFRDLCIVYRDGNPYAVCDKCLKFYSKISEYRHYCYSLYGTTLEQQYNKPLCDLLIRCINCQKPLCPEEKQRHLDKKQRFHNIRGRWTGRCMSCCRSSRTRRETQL
T3 sequence (P06463 whole entry): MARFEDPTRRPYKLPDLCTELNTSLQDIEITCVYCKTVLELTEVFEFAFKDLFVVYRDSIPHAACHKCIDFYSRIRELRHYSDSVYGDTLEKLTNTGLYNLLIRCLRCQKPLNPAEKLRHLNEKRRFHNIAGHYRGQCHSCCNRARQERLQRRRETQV

As to KEKEEYNSNSSSIASIGLI (also called b2) [pep11**m], the binding result in the assay with HPV16 E6 oncoprotein [1] is listed as “no binding”.

B1: E6 pep5 (peptide)
peptide: PFLLGCFCLCCWIECQIGSYGP
notes: Linear peptide from a randomized 20-mer library; Expressed in yeast as a GAL4AD fusion (vector pADpep); also called a2
Take B1: the binding result is on record as “no binding” with HPV6 E6 protein, “no binding” in the assay with HPV18 E6 protein, “no binding” with HPV11 E6 protein and “binds” in the assay with HPV16 E6 oncoprotein [2].

B2: E6 pep 1 (peptide)
peptide: KGSLNCSCLVCWLQMFLGEFGP
notes: Linear peptide from a randomized 20-mer library; Expressed in yeast as a GAL4AD fusion (vector pADpep); also called a1
As for B2, the binding result with HPV6 E6 protein is recorded as “no binding”; with HPV18 E6 protein, “no binding”; with HPV11 E6 protein, “no binding”; in the assay with HPV16 E6 oncoprotein [2] it was “binds”.

B3: E6 pep 11 (peptide)
peptide: EFGSGCSCIVCIGLI
notes: Expressed in yeast as a GAL4AD fusion (pADpep), in the mammalian two-hybrid assay as a VP16AD fusion (pACT2), and in the p53 reporter assay as an hrGFP fusion; also called a3
In the case of B3, the binding result with HPV6 E6 protein is “no binding”; with HPV18 E6 protein, “no binding”; with HPV11 E6 protein it was “no binding”; with HPV16 E6 oncoprotein [2], “binds”.

For the origin of these results see US20110201560A1 (DKFZ DEUTSCHES KREBSFORSCHUNGSZENTRUM STIFTUNG DES …, published 2011).
